Results as given in article PMC12690290.

How the values were obtained:
[1] = target: Low-density lipoprotein receptor 1 (low-density lipoprotein-related protein 1) (human (endogenous in HepG2 and primary human hepatocytes)) (UniProt Q07954); assay: affinity purification with mass spectrometry; as a6, RAP (500 nM) added as competitor to human hepatocyte extract and heme–HPX Affi-Gel 15; amount of receptor isolated
LRP1 (Homo sapiens) = LRP1 (Homo sapiens) (UniProt Q07954); assay: surface plasmon resonance; settings: cited from earlier work

| Substance | percent decrease of LRP1 isolated on proto-heme–human HPX Affi-Gel 15 with 500 nM RAP [1] [%] | Kd (LRP1 (Homo sapiens)) [nM] |
| --- | --- | --- |
| RAP (receptor associated protein) added at 500 nM (from UniProt P30533 35-357) (natural protein) | 50 | – |
| hemopexin (from UniProt P02790) | – | 4 |
